These results are taken from the NTF2 design screens of Basanta et al. (2020).

This data set is described as follows: protease stability score; higher = more stable; yeast display proteolysis, trypsin and chymotrypsin.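 Further: relative to predicted unfolded state with 0 unfolded-like and 1 meaning tenfold more protease.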
“DEDEKRARHALTLLVHSFLTGNFEFTTELLDPHYKLHVGEKTYIGRKAIKEWIREFHERIPNIKLKDITIEHMTWVGEKVVVHSRVEGEVDGKEMFLQVEIIMEKVNGRWIVHSIHMN”: the protease stability score is 2.01.

Consider “DEDEKRELARRFAKNFLHGDHDNIRDLADKDVDAQVGDQTFTGTEQLMRVVKEVRDRVDHFNLTSVDVHNGQADIHARAKVNGRDYRVKIRIKIHNGRILHVQFNRR”, for which the protease stability score worked out at 1.31.

Turning to “DEDEKRSEEFLNEFFHWVHTGDEEKLVKLMDPHMRLDVNGKESVGRENAFEMWHHLRIRRMDVRDIRVELVGDKAIARSDGHIDGEIDGVRIHTRVDLLLISRKVDGVWLFKSVSINSI”, the protease stability score amounted to 2.23.

Turning to “DEDEKRVEHTERFLSHSRRTGDEETLETMFDPNAKNIIDGRIFIGREFVEIWVRKFKNATEDLKVEEIRVQGNKVELVGNLFVQVGDKRYELDTRIEMTKIDGRWIIHRIEFR”, the protease stability score worked out at 1.21.

On to “DEDEKRWFDRADEVRRQWETGDFERHLRLMDPHVRMEVQQGDKHEEYHGRENVMEIIRQELERVKNVKLEVTDLEIQGEKVILRLKLHVNGRDIDIYIDIVFINGRIKHIRIRIQER”, for which the protease stability score amounted to 1.38.

The sequence “DEDEKSVKYAFTMYMQNITTGDEDTLKKYLDPNVKLHFNGVNLHGMESLNKWIREIRHRVRHVHFKDVRVIDGVLIVHIEWEVREDIDGQETEDRYIVRMIVLKIDGKWILRESQIL” had a protease stability score of 1.74.

As for “DEDEKTAEETLNEFIRSLLTGDEDNLKHLLDPNTRFHINGQDIHGWEVYYEMFRQWRVTHVRLEVKDFRIFNGRLDADGHLRMHGTINGKNRDTSSILHMHSVKVNGRWVLTEVRVE”, the protease stability score came out at 1.78.

Turning to “DEDEKVSHHAYKLIEHLFLTGDESTWMRMADPRTRIIIGDFHLIGREEWARVLKEILDRLGFKHIQFTDREVRVYGEKVHVELHLLLIQGDKEIRVELRYISDKIDGQWRYHSVTHHIK”, the protease stability score came to 0.998.

Take “DEDEKVVKLVFNEIREARRTGDEEKLHELFDPHVRLEQGDKNIHGREYMITQWRELRFHDYRINITHRTTYNGVAKVDGEVSVDYRIDGVRFHDKFRIKIVILKFDGRWMIHSEHIE”: the protease stability score is 0.822.

The sequence “DEDEKWAERFLELLIRSLVTGDEKTLEELADPRVKVEIGDKILHGRDEFERFIHEARIKSVHVRRMTDINGVMLMDGETTGNIDGVDRRRRTRIWVLKINGQWHLHSYQVV” displayed a protease stability score of 1.41.

On to “DEDEKYEEHYVEMFLRWLQTGDEDQIERNADPNVRLDVNGRDIIGWENIIEHIRQIKNLRIQIRRVRVVDGRSIVDIRVEVNGKRHEVNLIVIIINGKLKEVKFEFR”, for which the protease stability score was 2.71.

“DEDEKYLKEFLRILIEARRTGDEQLLERLMDPRVKLDNENHFSHGREDAVRHLNEHSKEARLESVEVHDVRVFNGVILWDVRIHGDIDGRRDTFNVIIIILKVNGRWRLREFIFT” yielded a protease stability score of 1.39.

Consider “DEDEKYMQEFLERLWRDLYTGDEESLTRRMDPRTRVDINGVDIHGMERVTEHIKHLVDRADHIELIIHTVNNVDGRAHNDGILVIKVNGREIRIETHFVLLKVDGRWRIQSEEYR”, for which the protease stability score was 0.399.

Regarding “DEDEKYVREVFRRFVEAVITGNEEELLELIDPHVRVLINGVDNMGREKWSEWMKRYGFRVHHVRIDDEDLINGVARLDTTEDVEYDGRRDTRHSHIIINKVDGRWHIERLEFR”, the protease stability score was 1.01.

As for “DEDENIARHAMELYFKLFETGDFNTLSHLLDPNVRSNINGQTLHGRELMLKQFLDLWEHMGVDHIELKDSREHLVNGRVHRHFHGHLHVNGQTYEVHVRFIMVKVNGRWRHTSESISIR”, the protease stability score stood at 1.1.

As to “DEDENLMRQFWETWEEALKTGDEHILHNLMDPNYRFIIGDKEHHGREAAEEFIRRVDHVTDIKFHRYRRIGDKIQIDGHLDGEINGKRNRYRSDIFVLKIDGRWFIHSVQIK”, the protease stability score was 2.31.

As for “DEDEQAFRHIMELKIHNINTGDEESLRRLMDPHVRIIIGDKQFHGMEFATEVFRRLGIKYIEDFKIDDLRIQGDKLDAHVTVRGNFNGVHTFHKMRLILRKYDGRWYIEHEEIK”, the protease stability score is 2.14.

Consider “DEDEQELRDALERWIRAMYTGDEKTLRDLIDPNVLIDINGKIIHGRHKLSQHLREIRIHHFEMHIEDYRFQGDKVHMDVREKRHWVIGDKHIDESRSVTLIIVKFDGRWLMHRVIVH”, for which the protease stability score is 1.19.

The sequence “DEDEQFWRNLAEEFMRALETGDEERMQELFDPHARLDIDGRRFHGWDTVIKFFEDLLKHLGITRIEFVYRRVRVINGVFHIEGEINVDGQTRDSRIENIVVDGKSQELRFNHR” gave a protease stability score of 0.298.

For the sequence “DEDEQHSELLFRLLYHARKTGDWRKLQELADPHTRFQIGEWDLIGWKMYLEYVRNFRNVHLEFHIKDFRLYGEKTHSNVETIIRIGDKTLNIETELRVDVVNGRIKFIEVHER”, the protease stability score came out at 0.994.

In the case of “DEDEQKHREAAHLMLEMILTGDFEYFRHLLDPDVRLEINGKEIHGREEVYRHLLEWWQRIKNVRIKFKTMRIHIFDGVLFIHLDLEIEIGDKSIKTEILIVSIKIDGRWLLNSLHIHDR”, the protease stability score was determined as 1.04.

In turn, “DEDEQMKESLLKIYRQSMHTGDEESHERLADPNVRVDWDGVRYHGRHILAIILHELGADHMDLKIKDSRLVNGRIHMTVIEIIDIGDKKHKIETHLIADKFDGRWHLRTLEIR” showed a protease stability score of 0.785.

“DEDERAIHVMLKLVKKAMDTGNEHMETELLDPNVRLDVNGRDVHGREEMRKFLNHHWKEWGVDRIIFLFESIHFQGDKVHIRGYVHINGKDFDVEFIASKVNGRWLVESRHLR” registered a protease stability score of 1.03.

Regarding “DEDERAYEESVRTFLENNLTGNEEILHRLMDPHVKTDYGDKRYHGMEEATEMIRRLGVNHFHLNSVHHQGDKVHLHGRVIVNGREFQVHIESKKINGRWVIRKVVID”, the protease stability score amounted to 1.27.

“DEDERDARKITDDYLHHLTTGDWNLMDTLADPHMKMDVNGQEIHGRESMVDLMLEWRFEHTDVHDKHVRSYDGKLEIHLDVHSRVHYNGRTDDTRREITLHIHKIDGRWRLEEVRIHYL”: the protease stability score is 0.695.

Sequence “DEDERDARKTSHLFLEAFTTGDEDLLRDMVDPNARSIVNGQEEHGWEVIHKTVRELQERYPNVKIDVNDWSYEVQGDKMRTILHFIIHFDGVHVEIHIHVFSRKINGRWVIRRIEYHER” came in with a protease stability score of 2.07.

Turning to “DEDERDFRHYMELFQKAHETGDEDHFIKMMDPNARFLINGVHLHGWKEFVRLLEHIRMDVSDTRIRTVDSQGDKVRADTELIFRGKIDGREIDVTFETRIIIEKVDGRWHLREIRVH”, the protease stability score came to 1.3.

The sequence “DEDERDTREAIELFRESIRTGDERILEEMVDPNVRLEFNGKHHHGMEHLVKWFSFLAKHWRVDIDLHHLEVQGDKVHSDERIDLVQGDKIVHTEVKIIFRKINGRWLMHKIRIN” came in with a protease stability score of 1.4.

With “DEDERDTRLALEELLRVSRTGNEHDHHRLVDPHVRMEINGRELHGWEVLVRLMHRYDHQELRVREVRVIGDKIDVDTENIVNFNGVEIVLETSIVARKIDGRWLIHSIHIG”, the protease stability score came to 1.23.

In turn, “DEDEREAERSIREELEYTRTGDEDFIKRLADPHVKLNIDGQRHHGRETVVKIMVEARIKDLHIERLTVIDGRVHMRGRMEGNFNGRDTEVEVHIKLKKVNGQWHVRDFEIR” registered a protease stability score of 1.14.

For the sequence “DEDERELQELREHFIRKFLTGDWEAIANLFDPNTRMNFNGREVHGMEEVMRVFWEIMEKLGVDHQTIHDVKWQGDKLEVHSYLDINGRRHKLRIELQVIDGVIRSVHFEIE”, the protease stability score came out at 1.21.

With “DEDEREMERWFQEILEDLRTGDFRSISRMVDPHAKVDVNGQERHGREQVENLIRRFKNATIHITHVDLDVVNGKLVVRIDTRLHVDGQTRKTEIIVISNKVNGRWFMESLSFKIE”, the protease stability score amounted to 0.904.

Sequence “DEDERERRWIYQLFLYLFITGDFHTLENLFDPHMRLHYGNKEYHGREEVSKTMLKIWRDLGVKYLSLRHFHIEIFNGRVSLHFYGEQDINGVHRDIEFRVDLVKINGKWVIEQIDLRIN” yielded a protease stability score of 1.62.

Regarding “DEDERESHNFMHEMEKAAKTGDWRKFEEMFDPDVRTIIGDKEDHGWEVAVKLFLDLGIKVLKVKRVDVVDGRLELEMELHFNGVIRKVTLRTKKVNGRWQVKELRFE”, the protease stability score was found to be 1.57.
